Data: paper PMC9295680 (Plant Direct, 2022)
Read-outs that look alike come from different tables or passages of the source. Values belong to the molecule of their own block, whether it stands above or below them.

Experiments:
Experiment in all cases: SEC-MALS
[1] = molecular target: homospermidine synthase (HSS) from Distimake quinquefolius individuum 2 (Distimake quinquefolius)
[2] = molecular target: homospermidine synthase (HSS) from Distimake quinquefolius individuum 1 (Distimake quinquefolius)
[3] = molecular target: homospermidine synthase (HSS) from Ipomoea alba (Ipomoea alba)
SEC-MALS [4] = molecular target: the molecule itself
SEC-MALS [5] = molecular target: the molecule itself; remark: listed apart in the source

Molecule: homospermidine synthase (HSS) from Distimake quinquefolius individuum 1 (enzyme)
stoichiometry N [2]: 4

B1: homospermidine synthase (HSS) from Camonea umbellata (enzyme, UniProt A0A6M4MJB9 1-377, looked up)
chain: MGEATRDQNSTMDSAHAAVFKKSESLDGACMKIEGYDFNRGIDYPQLLKSLLSTGFQASNLGEAIQIVNEMLDWRLSHEPIMEDCNDKEKDPAYRDSVTTKIFLGFTSNLVSSGVRETIRYLVQHHMVDVVVTTAGGIEEDLIKCLAPTYKGEFSLRGSVLRSKGLNRIGNLLVPNDNYCKFEDWIIPIFDQMYEEQTKQNVLWTPSKVIARLGKEINDESSYLYWAYKNEIPVFCPSLTDGSLGDMLYFHSFTKEVADNSDRNPGLIVDIVGDIRAMDGEAVHAGSRKTGVLILGGGLPKHHICNANMMRNGADFAAYINTAQEFDGSDSGARPDEAVSWGKIRCEAKTVKVHCDATIAFPLLVAETFATKARKLH
stoichiometry N (SEC-MALS [4]): 2
stoichiometry N (SEC-MALS [5]): 4

More lines, now with the values ahead:

stoichiometry N [1]: 4
Molecule: homospermidine synthase (HSS) from Distimake quinquefolius individuum 2 (enzyme)

stoichiometry N [3]: 4
Molecule: homospermidine synthase (HSS) from Ipomoea alba (enzyme)
